Measurements from patent publication US20260167721A1 (ABLEXIS, published 2026).
Values belong to the binder of their own block, whether it stands above or below them.

Columns and labels:
recombinant CD3 proteins [1] = target: T1, recombinant CD3 proteins (UniProt P07766 23-126); test: Octet BLI, recombinant CD3; Full R^2 0.966
T1 construct: elsewhere it uses human CD3 E/D and E/G heterodimers

recombinant CD3 proteins [2] = target: T1, recombinant CD3 proteins; test: Octet BLI, recombinant CD3; Full R^2 0.9823
recombinant CD3 proteins [3] = target: T1, recombinant CD3 proteins; test: Octet BLI, recombinant CD3; Full R^2 0.990
recombinant CD3 proteins [4] = target: T1, recombinant CD3 proteins; test: Octet BLI, recombinant CD3; Full R^2 0.9554
recombinant CD3 proteins [5] = target: T1, recombinant CD3 proteins; test: Octet BLI, recombinant CD3; Full R^2 0.9991
recombinant CD3 proteins [6] = target: T1, recombinant CD3 proteins; test: Octet BLI, recombinant CD3; Full R^2 0.603*
recombinant CD3 proteins [7] = target: T1, recombinant CD3 proteins; test: Octet BLI, recombinant CD3; Full R^2 0.974

T1 sequence (P07766 23-126): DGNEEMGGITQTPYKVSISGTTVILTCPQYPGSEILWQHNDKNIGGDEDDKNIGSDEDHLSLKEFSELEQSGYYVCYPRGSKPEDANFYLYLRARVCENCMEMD

B1: CD3 × CD33-BspAb95 (bispecific antibody)
chain 1: NFMLTQPHSVSESPGKTVTISCTRSSGSIASNYVQWYQQRPGSSPTTVIYEDNQRSSGVPDRFSGSIDSSSNSASLTISGLKTEDEADYYCQSYDRSNRVFGCGTKLTVLGGGGSGGGGSGGGGSGGGGSEVQLVESGGGLVKPGGSLRLSCSASGFTFSTYTMNWVRQAPGKCLEWVSSISKSSSYIYYTDSVKGRFTISRDNAKNSLYLQMNSLRAEDTAVYYCARERRTLAFDIWGQGTMVTVSSDKTHTCPPCPAPEFEGGPSVFLFPPKPKDTLMISRTPEVTCVVVDVSHEDPEVKFNWYVDGVEVHNAKTKPREEQYNSTYRVVSVLTVLHQDWLNGKEYKCKVSNKALPASIEKTISKAKGQPREPQVYTLPPCREEMTKNQVSLWCLVKGFYPSDIAVEWESNGQPENNYKTTPPVLDSDGSFFLYSKLTVDKSRWQQGNVFSCSVMHEALHNHYTQKSLSLSPGK
chain 2: EVQLVQSGAEVKKPGSSVKVSCKASGYTITDSNIHWVRQAPGQSLEWIGYIYPYNGGTDYNQKFKNRATLTVDNPTNTAYMELSSLRSEDTAFYYCVNGNPWLAYWGQGTLVTVSSASTKGPSVFPLAPSSKSTSGGTAALGCLVKDYFPEPVTVSWNSGALTSGVHTFPAVLQSSGLYSLSSVVTVPSSSLGTQTYICNVNHKPSNTKVDKRVEPKSCDKTHTCPPCPAPEFEGGPSVFLFPPKPKDTLMISRTPEVTCVVVDVSHEDPEVKFNWYVDGVEVHNAKTKPREEQYNSTYRVVSVLTVLHQDWLNGKEYKCKVSNKALPASIEKTISKAKGQPREPQVCTLPPSREEMTKNQVSLSCAVKGFYPSDIAVEWESNGQPENNYKTTPPVLDSDGSFFLVSKLTVDKSRWQQGNVFSCSVMHEALHNRFTQKSLSLSPGK
chain 3: DIQLTQSPSTLSASVGDRVTITCRASESLDNYGIRFLTWFQQKPGKAPKLLMYAASNQGSGVPSRFSGSGSGTEFTLTISSLQPDDFATYYCQQTKEVPWSFGQGTKVEVKRTVAAPSVFIFPPSDEQLKSGTASVVCLLNNFYPREAKVQWKVDNALQSGNSQESVTEQDSKDSTYSLSSTLTLSKADYEKHKVYACEVTHQGLSSPVTKSFNRGEC
Kd (recombinant CD3 proteins [1]): 8.44 nM
koff (recombinant CD3 proteins [1]): 0.00457 s⁻¹
kon (recombinant CD3 proteins [1]): 542000 M⁻¹ s⁻¹

B2: CD3 × CD33-BspAb96 (bispecific antibody)
chain 1: SYELTQPPSVSVSPGQTARITCSGDALPKKYAYWYQQKSGQAPVLVIYEDSKRPSGIPERFSGSSSGTMATLTISGAQVEDEADYYCYSTDSSGNHSWVFGCGTKLTVLGGGGSGGGGSGGGGSGGGGSEVQLVESGGGLVKPGGSLRLSCAASGFTFSSYSMNWVRQAPGKCLEWVSSVNSRGSYIYYADSVKGRFTISRDNAKDSLYLQMNSLRADDTAVYYCARDRRELLLDYWGQGTLVTVSSDKTHTCPPCPAPEFEGGPSVFLFPPKPKDTLMISRTPEVTCVVVDVSHEDPEVKFNWYVDGVEVHNAKTKPREEQYNSTYRVVSVLTVLHQDWLNGKEYKCKVSNKALPASIEKTISKAKGQPREPQVYTLPPCREEMTKNQVSLWCLVKGFYPSDIAVEWESNGQPENNYKTTPPVLDSDGSFFLYSKLTVDKSRWQQGNVFSCSVMHEALHNHYTQKSLSLSPGK
chain 2: B1 chain 2
chain 3: B1 chain 3
Kd (recombinant CD3 proteins [2]): 573 nM
koff (recombinant CD3 proteins [2]): 0.21 s⁻¹
kon (recombinant CD3 proteins [2]): 366000 M⁻¹ s⁻¹

B4: CD3 × CD33-BspAb98 (bispecific antibody)
chain 1: NFMLTQPHSVSESPGKTVTISCTRSSGSIASNYVQWYQQRPGSSPTTVIYEDNQRPSGVPDRFSGSIDSSSNSASLTISGLKTEDEADYYCQSYDSSNRVFGCGTKLTVLGGGGSGGGGSGGGGSGGGGSEVHLVESGGGLVKPGGSLRLSCAASGFTFSRYSMNWVRQAPGKCLEWVSSISRSSSYIYYADSVKGRFTISRDNAKNSLYLQMNSLRAEDTAVYYCAREPRTLGMDYWGQGILVTVSSDKTHTCPPCPAPEFEGGPSVFLFPPKPKDTLMISRTPEVTCVVVDVSHEDPEVKFNWYVDGVEVHNAKTKPREEQYNSTYRVVSVLTVLHQDWLNGKEYKCKVSNKALPASIEKTISKAKGQPREPQVYTLPPCREEMTKNQVSLWCLVKGFYPSDIAVEWESNGQPENNYKTTPPVLDSDGSFFLYSKLTVDKSRWQQGNVFSCSVMHEALHNHYTQKSLSLSPGK
chain 2: B1 chain 2
chain 3: B1 chain 3
Kd (recombinant CD3 proteins [4]): 5.1 nM
koff (recombinant CD3 proteins [4]): 0.00333 s⁻¹
kon (recombinant CD3 proteins [4]): 653000 M⁻¹ s⁻¹

B5: CD3 × CD33-BspAb97 (bispecific antibody)
chain 1: SYELTQPPSVSVSPGQTARITCSGDALPKKYAYWYQQKSGQAPVLVIYEDSKRPSGIPERFSGSSSGTMATLTISGAQVEDEADYYCYSTDSSGNHWVFGCGTKLTVLGGGGSGGGGSGGGGSGGGGSEVQLVESGGGLVKPGGSLRLSCAASGFTFSNYYMNWVRQAPGKCLERVSSISSSSNYIYYADSVKGRFTISRDNAKNSLYLQMNSLRAEDTAVYYCARDRRELPLDYWGQGTVVTVSSDKTHTCPPCPAPEFEGGPSVFLFPPKPKDTLMISRTPEVTCVVVDVSHEDPEVKFNWYVDGVEVHNAKTKPREEQYNSTYRVVSVLTVLHQDWLNGKEYKCKVSNKALPASIEKTISKAKGQPREPQVYTLPPCREEMTKNQVSLWCLVKGFYPSDIAVEWESNGQPENNYKTTPPVLDSDGSFFLYSKLTVDKSRWQQGNVFSCSVMHEALHNHYTQKSLSLSPGK
chain 2: B1 chain 2
chain 3: B1 chain 3
Kd (recombinant CD3 proteins [5]): 276 nM
koff (recombinant CD3 proteins [5]): 0.0854 s⁻¹
kon (recombinant CD3 proteins [5]): 309000 M⁻¹ s⁻¹

B6: CD3 × CD33-BspAb99 (bispecific antibody)
chain 1: not shown
chain 2: B1 chain 2
chain 3: B1 chain 3
Kd (recombinant CD3 proteins [6]): 30.7 nM
koff (recombinant CD3 proteins [6]): 0.00421 s⁻¹
kon (recombinant CD3 proteins [6]): 137000 M⁻¹ s⁻¹

Other lines, results leading:

Kd (recombinant CD3 proteins [3]): 16.2 nM
koff (recombinant CD3 proteins [3]): 0.00402 s⁻¹
kon (recombinant CD3 proteins [3]): 249000 M⁻¹ s⁻¹
B3: CD3 × CD33-BspAb115 (bispecific antibody)
chain 1: NFMLTQPHSVSESPGKTVTISCTRTSGSIASNYVQWYQQRPGSSPTTVIYEDNQRPSGVPDRFSGSIDSSSNSASLTISGLKTEDEAAYYCQSYDRSNRVFGCGTKLTVLGGGGSGGGGSGGGGSGGGGSQVQLQESGPGLVKPSETLSLTCTVSGGSISSYYWSWIRQPAGKCLEWIGRIYTSGSTKYNPSLKSRVTMSVDTSKNQFSLKLISVTAADTAVYFCARERIRDLYFDYWGQGTLVTVSSDKTHTCPPCPAPEFEGGPSVFLFPPKPKDTLMISRTPEVTCVVVDVSHEDPEVKFNWYVDGVEVHNAKTKPREEQYNSTYRVVSVLTVLHQDWLNGKEYKCKVSNKALPASIEKTISKAKGQPREPQVYTLPPCREEMTKNQVSLWCLVKGFYPSDIAVEWESNGQPENNYKTTPPVLDSDGSFFLYSKLTVDKSRWQQGNVFSCSVMHEALHNHYTQKSLSLSPGK
chain 2: B1 chain 2
chain 3: B1 chain 3

Kd (recombinant CD3 proteins [7]): 235 nM
koff (recombinant CD3 proteins [7]): 0.0831 s⁻¹
kon (recombinant CD3 proteins [7]): 354000 M⁻¹ s⁻¹
B7: CD3 × CD33-BspAb100 (bispecific antibody)
chain 1: EVQLVESGGGLVKPGGSLRLSCAASGFTFSNYYMNWVRQAPGKCLERVSSISSSSNYIYYADSVKGRFTISRDNAKNSLYLQMNSLRAEDTAVYYCARDRRELPLDYWGQGTVVTVSSGGGGSGGGGSGGGGSGGGGSSYELTQPPSVSVSPGQTARITCSGDALPKKYAYWYQQKSGQAPVLVIYEDSKRPSGIPERFSGSSSGTMATLTISGAQVEDEADYYCYSTDSSGNHWVFGCGTKLTVLDKTHTCPPCPAPEFEGGPSVFLFPPKPKDTLMISRTPEVTCVVVDVSHEDPEVKFNWYVDGVEVHNAKTKPREEQYNSTYRVVSVLTVLHQDWLNGKEYKCKVSNKALPASIEKTISKAKGQPREPQVYTLPPCREEMTKNQVSLWCLVKGFYPSDIAVEWESNGQPENNYKTTPPVLDSDGSFFLYSKLTVDKSRWQQGNVFSCSVMHEALHNHYTQKSLSLSPGK
chain 2: B1 chain 2
chain 3: B1 chain 3
